Columns and labels:
calcineurin [1] = assay: FKBP.FK-506.CaN complex-formation assay (size-exclusion column, Western analysis); assay type: binding, bovine; settings: partially purified FKBPs, CaM, Ca^2+, Mg^2+ and FK-506
Procedure: In the modified assay, samples were assayed by Western analysis using the anti-C-terminal peptide antibody in order to identify FKBP12 and FKBP12.6 in various chromatographic fractions.
In the first experiment, FKBP12 and FKBP12.6 were partially purified by preparative HPLC gel filtration chromatography on a Bio-Sil TSK-125 column. These partially purified FKBPs (containing both FKBP12 and FKBP12.6) are devoid of CaN which separates completely from them on this column. FKBP12 and FKBP12.6 co-elute at fractions 26 and 27 on the analytical sizing column (G2000SW) used in this experiment. […] Because this crude FKBP material also contains FKBP12.6, it can also be observed migrating slightly above FKBP12 in FIG. 4A.
To more carefully examine the requirements for FKBP12.6 complex formation with CaN, experiments were conducted using purified FKBP12.6.
The incubation buffer contained 20 mM Tris (pH 7.5), 100 mM NaCl, 6 mM MgCl2, 0.1 mM CaCl2, 0.1 mg/ml BSA, and 0.5 mM dithiothreitol. The incubation reaction was chromatographed on a Bio-Sil SEC400 HPLC column (Bio-Rad) at a flow rate of 1 ml/min and 1 min fractions were collected. The chromatography buffer was the same as the incubation buffer except that BSA was omitted. 30 μl of fractions 19-29 were subjected to electrophoresis on a 16% Novex Tris-Glycine gel and Western analysis was performed as described above.

[2] = Peptidyl-prolyl cis-trans isomerase (PPIase) activity; assay type: biochemical; settings: homogeneous FKBP12 vs partially pure (about 25%) FKBP12.6
Procedure: PPIase assays were performed as described (Fischer, G., et al., Nature, 337,476-478 (1989)) with the following changes: the peptide substrate used was N-succinyl-Ala-Leu-Pro-Phe-p-nitroanilide (BACHEM, California) at a final concentration of 72 μM and chymotrypsin (Sigma) was present in the assay at a concentration of 6 μM. The total reaction volume was 1.5 ml. The release of p-nitroanilide by chymotrypsin was measured by following the increase in absorbance at 405 nm on a Beckman DU68 spectrophotometer. After an initial rapid rise in absorbance due to hydrolysis of the trans peptide, the slow secondary increase in absorbance which reflects the cis-to-trans conversion of the peptide by the PPIase was measured at 3 sec intervals out to 1.5 min. The data were fitted to a simple first-order rate equation and the first-order rate constant, k (s^-1), calculated.

calcineurin [3] = assay: Calcineurin phosphatase assay; assay type: biochemical, bovine; settings: in presence of FK-506, CaN, CaM, Ca^2+, Mg^2+; read-out: IC50 for inhibition of CaN
Procedure: For a side-by-side comparison, FKBP12 was also tested for its ability to inhibit calcineurin in the presence of drug.
The calcineurin phosphatase assay is a modified version of previous assays (Liu, J., et al., Cell, 66, 807-815 (1991); Manalan, A., et al., Proc. Natl. Acad. Sci. U.S.A., 80, 4291-4295 (1983)). Reaction mixtures ([…] contained: 40 mM Tris (pH 8), 100 mM NaCl, 6 mM Mg(OAc)2, 0.1 mM CaCl2, 0.1 mg/ml BSA, 0.5 mM dithiothreitol, 190 nM bovine brain calmodulin (Sigma), 3 nM bovine brain calcineurin (Sigma), and 40 μM [^33 P]RII peptide (Peptides International) (600 cpm/pmole). Reaction mixtures were pre-incubated for 30 min at 30° C. prior to addition of the labeled peptide. The reaction was initiated by addition of the peptide and the dephosphorylation reaction was allowed to proceed for 10 min at 30° C. The reaction was terminated by the addition of 0.5 ml of 5% trichloroacetic acid containing 100 mM sodium phosphate (stop buffer) and applied to a 0.5 ml Dowex 50W-X8, H^+ column. Free [^33 P]phosphate was eluted from the column with 0.5 ml of stop buffer followed by 0.5 ml of water.

B1: FKBP12: abundant, cytosolic 11.8 kDa protein termed the FK-506 binding protein; bovine sequence SEQ ID NO:2 (protein)
chain: GVQVETISPGDGRTFPKRGQTCVVHYTGMLEDGKKFDSSRDRNKPFKFVLGKQEVIRGWEEGVAQMSVGQRAKLTISPDYAYGATGHPGIIPPNATLIFDVELLKLE
With B1 the “complex formation with CaN” value (calcineurin [1]) was “a significant fraction of FKBP12 is in the FKBP12.FK-506-CaN complex”, the “slope of PPIase rate relative to FKBP12.6” value [2] was 4.1 fold and the IC50 (calcineurin [3]) was 9.9 nM.

From patent US5457182A (Merck & Co., Inc., priority 1994, dated 1995)
